Biological target: HexaPro, recombinant SARS-CoV-2 spike protein vaccine candidate (SARS-CoV-2) (UniProt P0DTC2)
Test: SEC; […], PBS ([…], pH 6.5), 1.25 mL/min, […]

Substance: HexaPro, recombinant SARS-CoV-2 spike protein vaccine candidate (from UniProt P0DTC2 14-1273) (natural protein)
- stoichiometry N: 3

Source: paper PMC12846601
